Where a chain is given by its changes, count along the chain named. Blank lines part the entries; values can stand above or below the binder they belong to.
What was measured:
TAGT-8 (human) [1] = assay: BLI, Octet RED96, antigen-Fc on AHC sensor, Fab in solution
TAGT-8 (human) [2] = assay: BLI (Octet), antigen-Fc on AHC sensor
TAGT-8H (human) [3] = assay: BLI Octet RED96, antigen-Fc on AHC sensor, Fab analyte
TAGT-8 (human) [4] = assay: BLI (Octet RED96), antigen Fc-His on AHC sensor, Fab in solution
TAGT-8M (mouse) [5] = assay: as above
TAGT-8M (mouse) [6] = assay: BLI (Octet), antigen-Fc on AHC sensor
TAGT-8H (human) [7] = assay: BLI (Octet RED96), antigen-Fc on AHC sensor, Fab in solution
TAGT-8M (mouse) [8] = assay: as above
TAGT-12 (human) [9] = assay: BLI (Octet RED96), antigen Fc-His on AHC sensor, Fab in solution
TAGT-12 (human) [10] = assay: BLI, Octet RED96, antigen-Fc on AHC sensor, Fab in solution
TAGT-12 (human) [11] = assay: BLI Octet RED96, antigen-Fc on AHC sensor, Fab analyte
TAGT-8 (human) [12] = assay: BLI Octet, antigen-Fc on AHC sensor, Fab analyte
TAGT-6 (human) [13] = assay: BLI (Octet), antigen-Fc on AHC sensor
TAGT-6 (human) [14] = assay: BLI Octet RED96, antigen-Fc on AHC sensor, Fab analyte
TAGT-6 (human) [15] = assay: BLI (Octet RED96), antigen-Fc on AHC sensor, Fab in solution
TAGT-6 (human) [16] = assay: BLI (Octet RED96), antigen Fc-His on AHC sensor, Fab in solution
TAGT-6 (human) [17] = assay: BLI Octet, antigen-Fc on AHC sensor, Fab analyte
TAGT-12 (human) [18] = assay: BLI (Octet), antigen-Fc on AHC sensor
TAGT-12 (human) [19] = assay: BLI (Octet RED96), antigen-Fc on AHC sensor, Fab in solution
TAGT-8H (human) [20] = assay: BLI (Octet), antigen-Fc captured, Fab in solution

B1: Hit ID 4036 (Fab, V domains shown)
VH: EVQLVESGGGLVQPGGSLRLSCAASGFSLSTSGVGVGWIRQAPGKGLEWIGEIYHSGSTYYSPSLKSRVTISRDNSKNTLYLQLNSLRAEDTAVYYCARERYGSYYFDYWGQGTLVTVSS
VL: DIQLTQSPSSLSASVGDRVTITCRASQSVDFYGKSFLDWYQQKPGKAPKLLIYDASSLESGVPSRFSGSGSGTDFTLTISSLQPEDFATYYCQQYYRIPPTFGQGTKVEIKR
- Kd (TAGT-8 (human) [1]): 3.13 nM
- Kd (TAGT-8 (human) [2]): 3.13 nM
- Kd (TAGT-8H (human) [3]): 3.13 nM

B2: Hit ID 4027 (Fab, V domains shown)
VH: EVQLVESGGGLVQPGGSLRLSCAASGYSITSGHHWNWIRQAPGKGLEWIGWISPSSGGTKYAQKFQGRVTISRDNSKNTLYLQLNSLRAEDTAVYYCARGFDGFHYWGQGTLVTVSS
VL: DIQLTQSPSSLSASVGDRVTITCRASESVDFYGISFLPWYQQKPGKAPKLLIYDASNRATGIPSRFSGSGSGTDFTLTISSLQPEDFATYYCQQSYSWPWTFGQGTKVEIKR
- Kd (TAGT-8 (human) [4]): 1.55 nM
- Kd (TAGT-8M (mouse) [5]): 3.81 nM
- Kd (TAGT-8 (human) [2]): 1.55 nM
- Kd (TAGT-8M (mouse) [6]): 3.81 nM
- Kd (TAGT-8H (human) [7]): 1.55 nM
- Kd (TAGT-8M (mouse) [8]): 3.81 nM

B7: Hit ID 5115 (Fab, V domains shown)
VH: EVQLVESGGGLVQPGGSLRLSCAASGYSISSGHYWGWIRQAPGKGLEWIGEIYHSGSTYYSPSLKSRVTISRDNSKNTLYLQLNSLRAEDTAVYYCARESYYAFDYWGQGTLVTVSS
VL: DIQLTQSPSSLSASVGDRVTITCRASQSVSSYLAWYQQKPGKAPKLLIYAASTLQSGVPSRFSGSGSGTDFTLTISSLQPEDFATYYCQQYYTTPLTFGQGTKVEIKR
- Kd (TAGT-12 (human) [18]): 11.6 nM
- Kd (TAGT-12 (human) [19]): 11.6 nM

B8: Hit ID 4034 (Fab, V domains shown)
VH: EVQLVESGGGLVQPGGSLRLSCAASGYSISSGHYWNWIRQAPGKGLEWVSSISGYGSTTYYADSVKGRFTISRDNSKNTLYLQLNSLRAEDTAVYYCARERYYGSTDYAFDYWGQGTLVTVSS
VL: DIQLTQSPSSLSASVGDRVTITCSASSRVSHVFWYQQKPGKAPKLLIYAASTLQSGVPSRFSGSGSGTDFTLTISSLQPEDFATYFCLQGTHFPWTFGQGTKVEIKR
- Kd (TAGT-8H (human) [20]): 4.27 nM
- Kd (TAGT-8 (human) [4]): 4.27 nM
- Kd (TAGT-8 (human) [12]): 4.27 nM

B9: Hit ID 5404 (Fab, V domains shown)
VH: EVQLVESGGGLVQPGGSLRLSCAASGYSISSGYHWAWIRQAPGKGLEWIGEIYHSGSTYYSPSLKSRVTISRDNSKNTLYLQLNSLRAEDTAVYYCARSPYYYGVFDYWGQGTLVTVSS
VL: DIQLTQSPSSLSASVGDRVTITCSASSRVGSVYWYQQKPGKAPKLLIYDASNLETGVPSRFSGSGSGTDFTLTISSLQPEDFATYYCQQYTHDPVTFGQGTKVEIKR
- Kd (TAGT-6 (human) [13]): 3.3 nM
- Kd (TAGT-6 (human) [14]): 3.3 nM
- Kd (TAGT-6 (human) [15]): 3.3 nM

More lines, now with the values ahead:

- Kd (TAGT-12 (human) [9]): 28.3 nM
- Kd (TAGT-12 (human) [10]): 28.3 nM
- Kd (TAGT-12 (human) [11]): 28.3 nM
B3: Hit ID 6010 (Fab, V domains shown)
VH: EVQLVESGGGLVQPGGSLRLSCAASGYSISSGHYWNWIRQAPGKGLEWIGWINPNRGDTNYAQKFQGRVTISRDNSKNTLYLQLNSLRAEDTAVYYCARDYYGDFDYWGQGTLVTVSS
VL: B7 VL with V29I, A34N, A50D, T53N, Q55E, S56T, Q90H, Y91H, T93G

- Kd (TAGT-8 (human) [12]): 27.2 nM
- Kd (TAGT-8H (human) [3]): 27.2 nM
- Kd (TAGT-8H (human) [7]): 27.2 nM
B4: Hit ID 7040 (Fab, V domains shown)
VH: EVQLVESGGGLVQPGGSLRLSCAASGYSISSGYYWNWIRQAPGKGLEWIGWISPSGGSTNYAQKFQGRVTISRDNSKNTLYLQLNSLRAEDTAVYYCARDLTAGGFDYWGQGTLVTVSS
VL: B7 VL with S28G, V29I, A50D, T53N, Q55E, S56T, T93S

- Kd (TAGT-6 (human) [13]): 24.3 nM
- Kd (TAGT-6 (human) [14]): 24.3 nM
- Kd (TAGT-6 (human) [15]): 24.3 nM
B5: Hit ID 7097 (Fab, V domains shown)
VH: EVQLVESGGGLVQPGGSLRLSCAASGYSISSGHHWDWIRQAPGKGLEWVSYISGAGDTTYYADSVKGRFTISRDNSKNTLYLQLNSLRAEDTAVYYCAREGSDAVLGDWFAYWGQGTLVTVSS
VL: B7 VL with S28G, V29I, A50D, T53N, Q55E, S56T, T93S

- Kd (TAGT-6 (human) [16]): 14.8 nM
- Kd (TAGT-6 (human) [17]): 14.8 nM
- Kd (TAGT-6 (human) [15]): 14.8 nM
B6: Hit ID 7183 (Fab, V domains shown)
VH: B5 VH with H34Y, D36N, Y51S, A55Y, A104T
VL: DIQLTQSPSSLSASVGDRVTITCRASQSISSYLNWYQQKPGKAPKLLIYDASNRATGIPSRFSGSGSGTDFTLTISSLQPEDFATYYCQQSYSTPPTFGQGTKVEIKR
